Test results reported in the supplement of paper PMC12636428.

System: Saccharomyces cerevisiae
Experiment: transcriptional activation domain activity (GFP:mCherry ratio, weighted mean of sorted bins, harmonized to initial dataset scale) (arbitrary fluorescence ratio units); higher = stronger transcriptional activation
Conditions: beta-estradiol 1 µM; induction time 4 h
Description: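 53-aa protein tiles (fungal proteins plus yeast TF control tiles) fused C-terminally to a DBD-estrogen-binding domain-mCherry synthetic TF, integrated in S. cerevisiae (URA3 locus) with a GFP reporter. Cells were induced with 1 uM beta-estradiol for 4 h at 30 C, FACS-sorted into 8 bins by GFP:mCherry ratio and barcodes sequenced. Activity is the read-weighted mean bin fluorescence (GFP:mCherry), averaged over barcodes (median 12); tiles under 50 reads were discarded. New active-learning values were harmonized by linear fit onto the scale of the initial (Hummel et al.) dataset. The assay saturates at low and high signal.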

Sequence | transcriptional activation domain activity
WLSHSKKKSCDVCKHPYSFTKVYAENMPPRLPVFLLLRKVVEQAFFTIVFSIR | 55100
LWNSYLQSMDDTTGKNSGNYQQVDNDDNMSLLNLPILEETVSSGQDDKVEPDE | 54600
LEHVVLLLYCISAVVLQTRYGSVPIGWIEERPITIGFTMAFSGALRDCLMYAA | 56400
PSLKCVSLTYDELVRIVAQLLQKAFFKRFPSLKERFYSLVLSFLKKAMVPTNK | 40500
SVASMNSNYLLPVNSHGYKHISNLDELDDLLSLTYSDNNLLSASNNSDFNNSN | 88400
LTWDVFKLALFFCLFQDISFSFCTFLLCFFLICFAYIVYPLSLSLLNGVLFDP | 44900
PSGIIVLVICTLGLLCCTIMIILIFYFRYFKPIMSSSPIFCYLQLVGISMAYI | 46000
MVPFSAFSFSLVKKFHWSAAFGGSFFLHLFFTNLNAWVFLFYLLLYVFVYQGL | 40600
WRVLSVFAVFNLGPYVFSLILYSSNAFLYTQWLSFTAVCLISLANVILFRFLL | 43700
THHAFPLRLLVAIVVLLDCHSLLQIALGTCTWAISYHVRPFALTTVILCCSIT | 41300
EDEASASTDNDEATTKTEKQPKKKAKAEKVADCEAVVKKKAPAKRQSKKEANQ | 41600
MALFRALPLKIRNLIYLKLLNVSPLWISPIWIITDYYKERPIPLLKGLSLFLV | 45400
MLFFFCPIYLKLLIFFLCIVRSICQIFVFAYYLHRIYGVVCFSLLFFSKIQLR | 58200
ENAGNENAVDVENAGNENTAPEAKGKKNKGNAAANENAAGNAQAGEAGQVAAN | 47200
NIPIESSWHLFTNYVGLDIKQIVLLGKSLHYFNPGFLLHVNLFNWLWPKIVQL | 63300
FAGIYSLVHFRKVWSSDHFILRKFMFMIEDLYQLYNLFFSWVAMGNFYLIFYI | 67800
KSTARDTSAEVSSTKKRARSKAKKGDSDVEEDSDRGRSKTAKKSRKSTGAKSS | 12800
DLASPSDNDIDEARSREIAAKAVTGILVLLLKWLKLSHILKFEYLTQLLLDSN | 64400
FLDVSTSYDIGNPPSISDDLLDLSIFTAQNFQSPSIDFRRVKLMHDFLDVSRF | 125000
MLHVVGGYSRVRTWVIFLFVFRIGGRAYIDWIGFFFMGFLHWIRFIVVMVLFL | 41800
GVFILCRKRIVYMDGWRVWGVLIFRLFTWLFLGWLKIARGLGLGPALMMFLWL | 46200
KKEKAEKNKQQSKGQGQGEGDKEQKKEGEGEGEGGKDARAKGEKDGKDEKGAK | 46400
VLSDKEKHRVASQHLNGESSPQLVPHSHHQPHSDTDEEDWESIGAASLRNNSL | 35500
HWSYYRNGNMIINFFYKEIINIGYLFWFQIYCAWSTAQAIDYVYLLFWNAFWT | 77100
RLYMLCTKIFLLLVGQRSEVGLTYASCITFMLCAAIPSESFVRNLVLLRVMLA | 58400
LSFLLSFPLPLIPHVLPSLFPCPLFLPLFPPSLPLSPFPPLPLFPPSPFFPLS | 62300
MLQLWRLCVDNLLMAFSNYFPLVLPHATRFYLFYFWLILRGLQLTRLFCVCFM | 85300

Sequence | transcriptional activation domain activity
MDKIRKGKVVVVGCGGVGSWAAVMLVRSCVQHFVVYLVCSSIYIIISGVSKIR | 58900
DNYILNNENDDGLDNLLGMDYYNIDDLLTQELRDLDIPLVPSPKTGDGSSDKK | 109000
PTQEVLRFCKRELMHKLWNLLMDDDFLHAYMHGIVVCCGDGVLRRLFPRIFTY | 44400
MKAEYITLINLLVHPSFVLWESPLPTLSFFFFFFFFLAWSPFRVFSLFVIPSL | 50300
MSAPVEEKMAALNVNDKKPAAPKADKKAKKSKGTEGEYPLEFSPAPEYLQHRI | 30300
GGTASPPPPPDNRPPEERYAEQLRQLNDMGFFDFDRNVEALRRSGGSVQGAIE | 28300
SQPSDTIRKRTAGDDGALDQTENTSISPKKRRTEDHTKGEEDEGERGVGNSGT | 22200
MDAPQNNSRGNNARRNRNRGGNRQSTGGVTKQQSQQQSKPAAKPVNVQTTVVI | 47800
MSAVCMFLRNRALFIHIFSVALTLFHVGAFQLLHCNCAYGFLVWGFLGCSLSL | 78500
MDLVILMVYLNNNNNILIIIIMISTLIIHQLVQLIYLNLWLGCILWKTVLCSG | 42900
PEKLFGLMHAAISNFPEWETKVGSWFLLGIWHPRFFKAAKEILPYCRRSCISF | 64500
CPQPLIYCKPCKILQTQYDRLHINHMTFNMISHHLYRGLLPLLVVVCLLGKIV | 62100
SSNGRKSSKRRSRDKDEDEDEDEEDRKRRKRRRERERSKEKEERRSVLTGKKI | 27200
VIMCTALGIKSVKFEFANLCLVSIEHIFALFFYPMAVIICPSFLLHIATFFYI | 83900
EIDEAAGEINEAAGEVNEAGEVDKAGEVDEAGEVNDEAGKIDKAAGEIDEAAG | 30600
MILVQLYIYHHFLNYRCLLHVILFRLKLILPSSSLIFVLGSVESSGNHGTSYD | 49200
MFCLRSWLPLLFIPTNASPAFILLFFIGTYFLNRPCVYCSLLLLILFCTSCVW | 40200
QRGKPYDLHSSDGSSEKKRTEKVGLSAGKQHMWILLRPKAAMWAVCVVLASPE | 38700
TTTGTTTTGTTATPSSSPETKPNKIPISMQGYAYSGGGRAIARVDVSLDNGRT | 37700
LDIGHWMSSYNLLRRQSTKRYMIIMDLTRRFNTRTPNLLYLIQWGFVWGVSYY | 57900
QAFTIVDPTPPIRFYDLHRLHLTLVHSPMRFFHVAPIIPFLLSYLIELYSLFY | 43100
QESEAVTEKCKNRLDITSEELERVLLQKEGESLKDNAVQQRQGAGGKRAIGKA | 23500
MHFAVKVKMQLFFFIFSLTLFFFLWYFFFFFPVVYGVFSSGVLGVFFSLFSFF | 66200
RKKREREAEKAEAKRKEERDARRREREKREEEREREREKEREERRRARERDRE | 33900
KKDEEQTSSSTPSPPPQESAEKNEAKDEEKPAEQKAKKKPKKLQVRSAGTPAP | 7630
TSLVVENGNGNGSGRGRKKRGRDGGGGGRGGGGGRGGGGEEDGLVGGAGAGGG | 25000
EEGASQRANQRGKGEEGASQTANQRGKGEEGNQRRKGRKGAKGGRGRKGAKGG | 28500

Sequence | transcriptional activation domain activity
EAAAAAKRKRRKATSDSPEQARRGHVARKTAVACNFCRGRKLRCNGAKPSCSN | 22800
RTSEMIMGFFFKNIVWTFVLFWYQIFCQFNGSMMFEYVLVALYNLIFTSLPII | 62900
VLLCQMEDAVLSSSFAIKANTAMSQNTAEEFFNISEEEALNQLLENNNFDAFW | 140000
EDAEATPAAAVEAEDDAMVVDSEEPKKKSKKDKKEKKDKKRKAAETTEAETAN | 16400
RLYAVRLVIVILVMELTLHFLYVVAISKSKAWDGASPLELSMVGYFNLVIIWM | 42900
MSSDDDSAPRTKRGGKPTTKKQQKRAIARACDRCRQKKVKCDGASLAIGAVCQ | 40600
MDVGIYVCICFDGLFSFGEFFYVVYTSFINHTIEFLCLFGFHFLFWVLIFFWV | 50900
PKRGRGRPPKDPAAKAAAAAAAAEAEANGEKKPGRGRPRKNPVPSGEGGEAVP | 19600
HCCRLLFLLFLFLFFFLLLFICFFLRLLRLLFPHRNTNLTRPIADPIIPIIPP | 46900
LLLVHGRWSYQRVADMHSNFFYKNVIWTFALFWYLPFNSFDATYLYQYTFILL | 47600
EVSEESGDSGDDEGRKEKKKRKRVKEEEVEDEGERKKKKSKKSKDEKSAEKAD | 47600
AYLTFCIYLCFWSYLNLRLAGLFFFSLFIILFPPRVSWLHYFSFLFYSGVFCF | 51000
AAEEEDEEAKPLPAKKKRSSKKRKAEDAAEPEEKPAAKKKTAKVSGRGKKAAD | 16300
ASEAPKEEPKTESAPEPKQESAPESKKEAPAPAASKPEPPKQVEKKKESSSAP | 34300
EQGDTPAKKKARKGASGTGRKRKTVGDDEAAGGNEQEGQPKKKARREKAAATE | 29300
EMVKTESVATSSTTTTKTESEGAVVKEEKMASPSPTRVKVEKVEVKRVPTISL | 15700
IIRARIFSYLYYGVKKFTFLFPINTVITNMAATLLCAVLVIYCTLTILPMIYY | 62200
LLLRGSTFSFLLSSFLHFFIALVNCMLYTPPKFFKNPFCMFILFYLSYLLWGT | 66000
LEVTQRGITPANTDYNSNPIDKCLVSDSFNESTTNLLRSLLHCLRILALTYHA | 36600
GHERERGSGREKRGGERDATGRRERDRESGRESRESRESSRRERGSRDEGRRD | 39800
AAPSKPASPTKAAAPVSKPVTPAPQKAAPVQQQSKPATPAPQQKAATPAPKTA | 29500
SLHFNLGELRRTLLPFMWLTLKLSFFLWIFGRHAASNKRVVLCILALLCVLWE | 64800
IARADRTSPNDGGVALKKHVVVFASRPGLGLLIAAYLHKNLRSDWNIQLILGC | 66700
MRLFYSSFLLFSFLPFLPLLWFFNYLIAIVFPFFFFFFLSFVMGLISFRFLLF | 40200
EPQPPPKAEPPPEPEPEPVPKAEAPPPPREEPPPPKKAPPPPKPEPTPAPAPT | 38600
